± gives the uncertainty stated by the source.
Assay: protein stability index of a GFP-peptide fusion (yeast GPS) (PSI 1-4); higher = more stable; sorted into four equal gates, so the index is relative within each strain
Procedure, shortened: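 Yeast carrying a pooled library were grown to mid-log phase in leucine-free medium. Each library plasmid expresses Cherry and has a tiled 17-residue yeast protein peptide fused downstream of GFP. Cells were sorted into four equal gates by GFP/Cherry ratio, and plasmids from each gate were PCR-amplified, Illumina-sequenced and assigned to strains by barcode. Summing, across gates, the read frequency times the gate number gave each peptide's protein stability index.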

| Sequence | protein stability index (doa10∆) | protein stability index (pdr5∆) | protein stability index (san1∆) | protein stability index (ubr1∆) |
| --- | --- | --- | --- | --- |
| IKLNGSTLLCTDLESKS [SNU114] | 2.67 ± 0.06 | 2.73 ± 0.058 | 2.54 ± 0.056 | 2.82 ± 0.063 |
| PSSSDSNGPRAAKKRRP [RRP6] | 3.08 ± 0.11 | 3.29 ± 0.085 | 3.28 ± 0.063 | 3.3 ± 0.062 |
| GWKYEDVVAKLEAKRKV [RPL16A] | 2.78 ± 0.082 | 1.88 ± 0.063 | 1.93 ± 0.13 | 1.88 ± 0.046 |
| KSLEEQEYAIEMKIGSI [SMC1] | 2.71 ± 0.11 | 3.23 ± 0.18 | 2.67 ± 0.11 | 2.66 ± 0.2 |
| EDFRIQFKTTIKDTAND [UBP6] | 2.49 ± 0.067 | 2.47 ± 0.07 | 2.16 ± 0.063 | 2.43 ± 0.054 |
| AKSLLKLQLGQLYESGN [COR1] | 2.97 ± 0.12 | 3.27 ± 0.13 | 2.99 ± 0.1 | 3.01 ± 0.087 |
| KTSEKSENHTESDAPPK [YOR098C/NUP1] | 2.52 ± 0.13 | 2.75 ± 0.13 | 2.53 ± 0.15 | 2.28 ± 0.21 |
| SSDDLQNCWSLINDSYI [SSN8] | 1.94 ± 0.068 | 2.03 ± 0.081 | 1.53 ± 0.11 | 1.74 ± 0.064 |
| NAEKYFNNGDDDDYGDE [RPC31] | 3.18 ± 0.099 | 2.67 ± 0.13 | 3.07 ± 0.066 | 3.16 ± 0.073 |
| DSELNRALFETKLNLHC [RRI1] | 2.75 ± 0.067 | 2.79 ± 0.053 | 3 ± 0.038 | 2.92 ± 0.055 |
| PNGSGKSNVIDSMLFVF [SMC4] | 2.87 ± 0.048 | 2.87 ± 0.051 | 2.68 ± 0.055 | 2.96 ± 0.037 |
| MAFNLLGLLTPEVVELC [FAS2] | 1.8 ± 0.085 | 1.56 ± 0.12 | 1.22 ± 0.22 | 2.47 ± 0.12 |
| YVERFETQLKVVTRSKE [SMC1] | 1.12 ± 0.066 | 2.29 ± 0.091 | 1.26 ± 0.2 | 2.11 ± 0.051 |
| EIIGGGSKSASKQTPQP [ISW2] | 2.95 ± 0.081 | 3.08 ± 0.092 | 2.97 ± 0.068 | 2.96 ± 0.06 |
| FNTQQGIKKHSLWRRTV [YDL116W/NUP84] | 2.6 ± 0.049 | 2.76 ± 0.043 | 2.77 ± 0.048 | 2.49 ± 0.031 |
| KGLTYLHLDYNFNLKPT [PRP8] | 2.19 ± 0.032 | 2.12 ± 0.035 | 2.05 ± 0.05 | 2.22 ± 0.03 |
| AAGTSQARTATLKYICA [RPC10] | 2.16 ± 0.15 | 2.07 ± 0.11 | 1.72 ± 0.11 | 2.24 ± 0.094 |
| GCGNTQPTIRKDGLKLV [RPO21] | 2.42 ± 0.084 | 2.11 ± 0.056 | 2.3 ± 0.17 | 2.41 ± 0.045 |
| HHRDSNFPDEDDDDSRK [SKP1] | 3 ± 0.18 | 3.55 ± 0.17 | 3.07 ± 0.14 | 3.5 ± 0.18 |
| HAIIIFGYPETIANSII [YMR153W/NUP53] | 1.91 ± 0.078 | 2.04 ± 0.065 | 2.17 ± 0.098 | 2.92 ± 0.046 |
| TFVHVTDLSGKETIARV [RPS14A] | 2.89 ± 0.069 | 2.82 ± 0.073 | 2.84 ± 0.05 | 2.4 ± 0.055 |
| LHLDYNFNLKPTKTLTT [PRP8] | 2.45 ± 0.034 | 2.7 ± 0.037 | 2.68 ± 0.039 | 2.5 ± 0.03 |
| TENEIPNLIEKMVAKGL [BRR2] | 2.85 ± 0.17 | 2.81 ± 0.13 | 2.63 ± 0.093 | 2.78 ± 0.11 |
| KIQASDVNIIGKDRIAI [RPO31] | 2.82 ± 0.11 | 3.05 ± 0.098 | 2.87 ± 0.087 | 3.35 ± 0.081 |
| DRVFNVPTIGVVNSNFA [YJR042W/NUP85] | 2.57 ± 0.08 | 2.7 ± 0.085 | 2.48 ± 0.086 | 2.5 ± 0.036 |
| PGIISITSLQDSSSQCI [YMR129W/POM152] | 2.86 ± 0.076 | 3.04 ± 0.074 | 3 ± 0.066 | 3.14 ± 0.085 |

| Sequence | protein stability index (doa10∆) | protein stability index (pdr5∆) | protein stability index (san1∆) | protein stability index (ubr1∆) |
| --- | --- | --- | --- | --- |
| NVELLNCIRILADKLEN [YIL149C/MLP2] | 1.22 ± 0.069 | 1.36 ± 0.074 | 1.06 ± 0.13 | 1.2 ± 0.045 |
| SASRAKNMPVIYNNIVS [RGR1] | 2.42 ± 0.064 | 2.26 ± 0.064 | 2.31 ± 0.053 | 2.34 ± 0.047 |
| PPQDAEGWFYKRAASVA [RPS19A] | 2.9 ± 0.27 | 1.42 ± 0.11 | 1.53 ± 0.14 | 1.56 ± 0.11 |
| SNDEKQKAQDVDVSMQD [RPN13] | 3.17 ± 0.091 | 3.27 ± 0.064 | 3.22 ± 0.041 | 3.31 ± 0.044 |
| GGDGRDYKGAKLNVVGW [RRI1] | 3.15 ± 0.15 | 3.15 ± 0.15 | 2.56 ± 0.12 | 3.23 ± 0.084 |
| LDEDDVNADDDDFMHSE [RPB4] | 2.94 ± 0.096 | 2.82 ± 0.088 | 2.53 ± 0.12 | 3.07 ± 0.09 |
| WVLHRDLKPANIMVTID [SSN3] | 1.28 ± 0.18 | 1.98 ± 0.14 |  | 2.48 ± 0.14 |
| LMASVILDSLPSVIHSS [YDL116W/NUP84] | 1.76 ± 0.042 | 1.38 ± 0.039 | 1.34 ± 0.067 | 1.48 ± 0.034 |
| KYVLITGAGKGSIGAEV [FAS2] | 3.22 ± 0.24 | 3.27 ± 0.12 | 3.63 ± 0.099 | 3.05 ± 0.093 |
| SRSSSKNVNIEDITEPK [ESC2] | 2.92 ± 0.086 | 3 ± 0.082 | 2.67 ± 0.086 | 2.98 ± 0.15 |
| FLANHKDRLYCGKCHSV [RPS31] | 2.38 ± 0.17 | 2.61 ± 0.13 | 2.02 ± 0.16 | 2.69 ± 0.082 |
| TDLEKKHLWDQKSLAAL [RPC17] | 2.86 ± 0.11 | 2.98 ± 0.062 | 2.94 ± 0.081 | 3.02 ± 0.059 |
| VKKQKSARGIETRPAQV [FAS2] | 2.77 ± 0.1 | 3 ± 0.094 | 3.1 ± 0.083 | 3.09 ± 0.082 |
| TRLLNIVMQLRKCCNHP [ISW2] | 2.65 ± 0.062 | 2.84 ± 0.061 | 2.94 ± 0.049 | 2.84 ± 0.057 |
| DDYVLRIFAIAFTRKQA [RPS1A] | 1.77 ± 0.019 | 1.888 ± 0.017 | 1.94 ± 0.027 | 2.156 ± 0.015 |
| HAADSQNNKPSFVFGQA [YLR335W/NUP2] | 2.91 ± 0.11 | 2.95 ± 0.092 | 2.58 ± 0.057 | 3.15 ± 0.093 |
| SCLTFFQALDSEETQFK [ITC1] | 2.73 ± 0.1 | 3.49 ± 0.13 | 2.7 ± 0.11 | 3.17 ± 0.15 |
| VSKADILLSHHRASPAD [POP5] | 2.34 ± 0.15 | 3.26 ± 0.16 | 3.18 ± 0.054 | 2.91 ± 0.1 |
| LNKAGKPFRQTKFKVRG [RPL38] | 2.78 ± 0.12 | 3.33 ± 0.069 | 3.19 ± 0.11 | 3.04 ± 0.081 |
| AELEELEEFEFKHGPMS [SMD2] | 3.42 ± 0.078 | 3.41 ± 0.063 | 3.15 ± 0.058 | 3.34 ± 0.071 |
| SSIHWNNWFSLPGDMLA [SIN4] | 2.56 ± 0.061 | 1.88 ± 0.055 | 1.71 ± 0.11 | 1.93 ± 0.041 |
| LTVYLEPGHAADQEQAK [RPO21] | 2.96 ± 0.14 | 2.68 ± 0.1 | 3.05 ± 0.081 | 3.13 ± 0.083 |
| QYDFKAVLEENDENDDE [RPN14] | 3.04 ± 0.11 | 3.24 ± 0.075 | 3.05 ± 0.076 | 2.89 ± 0.055 |
| MNAGGRNVTIQLENADT [RPN2] |  | 2.44 ± 0.18 | 1.62 ± 0.29 |  |
| IRLAKTLKKNNVAVDII [RPN10] | 2.73 ± 0.085 | 2.85 ± 0.095 | 2.92 ± 0.12 | 2.56 ± 0.075 |
| KDLVIVSNLMGRNIGHP [RPB3] | 3.22 ± 0.051 | 3.1 ± 0.05 | 3.18 ± 0.039 | 2.88 ± 0.037 |

From the supplement of paper PMC9732359
